Laboratory results: patent US20090220521A1 (published 2009)

Molecular target: recombinant human MIF (macrophage migration inhibitory factor) (human, UniProt P14174 2-115)
Assay: Biacore; Fab fragment

Chain of recombinant human MIF (macrophage migration inhibitory factor) (P14174 2-115): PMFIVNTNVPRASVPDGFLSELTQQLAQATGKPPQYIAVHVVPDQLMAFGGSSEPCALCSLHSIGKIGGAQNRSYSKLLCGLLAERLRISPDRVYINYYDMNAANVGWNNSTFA

Binder	Kd [nM]
Bax74 (antibody, V domains shown) VH: EVQLLESGGGLVQPGGSLRLSCAASGFTFSKYYMIWVRQAPGKGLEWVSWIGPSGGFTFYADSVKGRFTISRDNSKNTLYLQMNSLRAEDTAVYYCARGTPDYGGNSLDHWGQGTLVTVSS VL: DIQMTQSPSSLPASVGDRVTITCRASQSIGTYLSWYQHKPGNAPKLLIYATSRLQSGVPSRFSGGGSGTRFTLAISSLQPDDFATYFCQQTYSTPLTFGGGTKVDIK	93
Bax69 (antibody, V domains shown) VH: EVQLLESGGGLVQPGGSLRLSCAASGFTFSIYSMNWVRQAPGKGLEWVSSIGSSGGTTYYADSVKGRFTISRDNSKNTLYLQMNSLRAEDTAVYYCAGSQWLYGMDVWGQGTTVTVSS VL: DIQMTQSPSSLSASVGDRVTITCRSSQRIMTYLNWYQQKPGKAPKLLIFVASHSQSGVPSRFRGSGSETDFTLTISGLQPEDSATYYCQQSFWTPLTFGGGTKVEIK	55

Now those with a lower Kd, led by results:

Kd [nM]	Binder
0.4	BaxA10 (antibody, V domains shown) VH: EVQLLESGGGLVQPGGSLRLSCAASGFTFSWYAMDWVRQAPGKGLEWVSGIYPSGGRTKYADSVKGRFTISRDNSKNTLYLQMNSLRAEDTAVYYCARVNVIAVAGTGYYYYGMDVWGQGTTVTVSS VL: DIQMTQSPGTLSLSPGERATLSCRASQGVSSSSLAWYQQKPGQAPRLLIYGTSSRATGIPDRFSGSASGTDFTLTISRLQPEDFAVYYCQQYGRSLTFGGGTKVEIK
4	anti-MIF antibody Bax94 (antibody, V domains shown) VH: EVQLLESGGGLVQPGGSLRLSCAASGFTFSIYAMDWVRQAPGKGLEWVSGIVPSGGFTKYADSVKGRFTISRDNSKNTLYLQMNSLRAEDTAVYYCARVNVIAVAGTGYYYYGMDVWGQGTTVTVSS VL: DIQMTQSPGTLSLSPGERATLSCRASQGVSSSSLAWYQQKPGQAPRLLIYGTSSRATGIPDRFSGSASGTDFTLTISRLQPEDFAVYYCQQYGRSLTFGGGTKVEIK
16	Bax152 (antibody, V domains shown) VH: EVQLLESGGGLVQPGGSLRLSCAASGFTFSIYAMDWVRQAPGKGLEWVSGIVPSGGFTKYADSVKGRFTISRDNSKNTLYLQMNSLRAEDTAVYYCARVNVIAVAGTGYYYYGMDVWGQGTTVTVSS VL: DIQMTQSPVTLSLSPGERATLSCRASQSVRSSYLAWYQQKPGQTPRLLIYGASNRATGIPDRFSGSGSGTDFTLTISRLEPEDFAVYYCQQYGNSLTFGGGTKVEIK
